Assay results reported in patent US20250361274A1, “PEPTIDE AND PEPTIDE-CONTAINING AGENT” (PEPTIDREAM INC., priority 2022, published 2025).
Numbered stars: 1 amine (or outer) side, 2 acyl side, 3 side chain; on linkers, the order of the positions; unused ones are H or OH. Bridge positions count the residues as written; N and C are the ends. Square brackets hold non-standard residues; d marks the D form. Ends that are not written are not given here. Peptide text beside a SMILES is read from it. * marks the point of attachment. KCOpipzaa = N6-(4-(carboxymethyl)piperazine-1-carbonyl)-L-lysine, O=C(NCCCC[C@H](N[*:1])C(=O)[*:2])N1CCN(CC(=O)[*:3])CC1; Bph3F = (S)-2-amino-3-(3'-fluoro-[1,1'-biphenyl]-4-yl)propanoic acid, O=C([C@H](Cc1ccc(-c2cccc(F)c2)cc1)N[*:1])[*:2]; X8 = 4‑(carboxymethyl)piperazine‑1‑carbonyl, O=C(O)CN1CCN(C(=O)*)CC1; 3Pal(6-Ph) = N[C@@H](Cc1ccc(-c2ccccc2)nc1)C(=O)O; Phe(4-COOH) = N[C@@H](Cc1ccc(C(=O)O)cc1)C(=O)O; NMePhe(4-Me) = CN[C@@H](Cc1ccc(C)cc1)C(=O)O; Bip = N[C@@H](Cc1ccc(-c2ccccc2)cc1)C(=O)O; Phe(3-Cl) = N[C@@H](Cc1cccc(Cl)c1)C(=O)O; Phe(4-F) = N[C@@H](Cc1ccc(F)cc1)C(=O)O; cisHyp = O=C(O)[C@@H]1C[C@H](O)CN1; Hyp = O=C(O)[C@@H]1C[C@@H](O)CN1; NMeF = CN[C@@H](Cc1ccccc1)C(=O)O; 4Pal = N[C@@H](Cc1ccncc1)C(=O)O; Aad = N[C@@H](CCCC(=O)O)C(=O)O; Cha = N[C@@H](CC1CCCCC1)C(=O)O; Cba = N[C@@H](CC1CCC1)C(=O)O; βAla = NCCC(=O)O

How the values were obtained:
BMP4 = biological target: T1, BMP4 (Homo sapiens, UniProt P12644); assay: BMP4 signal transduction inhibitory activity: SMAD1 phosphorylation by BMP4 stimulus, AlphaLISA SureFire, A549 cells; assay type: cell-based; details: for aLISA BMP4: A549 cells
T1 sequence (P12644 293-408): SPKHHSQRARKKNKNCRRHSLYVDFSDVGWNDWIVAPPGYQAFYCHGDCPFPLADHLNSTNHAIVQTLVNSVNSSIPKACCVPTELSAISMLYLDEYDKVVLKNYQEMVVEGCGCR

BMP7 = biological target: T2, BMP7 (Homo sapiens, UniProt P18075); assay: BMP7 signal transduction inhibitory activity: SMAD1 phosphorylation by BMP7 stimulus, A549 cells; assay type: cell-based; details: for aLISA BMP7: A549 cells
T2 sequence (P18075 293-431): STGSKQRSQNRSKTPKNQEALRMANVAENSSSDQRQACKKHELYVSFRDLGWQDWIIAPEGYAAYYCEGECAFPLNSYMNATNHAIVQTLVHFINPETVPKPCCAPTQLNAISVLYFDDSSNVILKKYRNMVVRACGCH
How it was run: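 SMAD1 phosphorylation readout in A549 cells stimulated with BMP7 (10 nM). Peptides were tested at three levels (e.g. 1/10/100, 10/100/1,000, 100/300/1,000, 10/30/90 nM) or at eight points, 1/3 steps, from 100 or 1,000 nM. Recombinant Noggin served as positive control at matching concentrations.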

[1] = inhibition of SMAD1 phosphorylation by BMP4 stimulus, peptides of Synthesis 2, classes A-C, ND
[2] = inhibition of SMAD1 phosphorylation by BMP7 stimulus, peptides of Synthesis 2, classes A-D, ND
[3] = BMP4 0.2 nM stimulus, peptide conc. in assay 0.2, 2, 20 nM
[4] = BMP7 10 nM stimulus, peptide conc. in assay 1, 10, 100 nM
[5] = BMP4 0.2 nM, peptide 0.02, 0.2, 2 nM, Table 6
[6] = BMP7 10 nM, peptide 10, 100, 1000 nM, Table 6
[7] = BMP4 0.2 nM stimulus, peptide conc. in assay 0.02, 0.2, 2 nM, class symbols
[8] = BMP7 10 nM stimulus, peptide conc. in assay 100, 300, 1000 nM, class symbols
[9] = SMAD1 phosphorylation, peptides of Synthesis 2, peptide 0.02, 0.2, 2 nM
[10] = 10 nM BMP7, peptides of Synthesis 2, peptide 1, 10, 100 nM

Compound: 59 (Ac-AK(X8)VYVDR[Bip]PYP[Bip][Phe(4-F)][Phe(4-COOH)][Phe(4-COOH)]SCG-NH2; thioether (positions not given here); not fully specified (bridges)) [compound 59]
- aLISA BMP4 (BMP4; inhibition of SMAD1 phosphorylation by BMP4 stimulus, AlphaLISA, class by peptide concentration zone): A (showed an inhibitory activity of 50% or more in a zone to which the peptide was added to in an amount of 0.2 nM)
- aLISA BMP7 (BMP7; inhibition of SMAD1 phosphorylation by BMP7 stimulus, AlphaLISA, class by peptide concentration zone): C (showed less than 50% of inhibitory activity in 10 nM-addition zone and showed 50% or more of inhibitory activity in 100 nM-addition zone)

Compound: 97 ({CH2CO}-ERVYV[KCOpipzaa]R[Bip]SYP[Bip]Y[Phe(4-COOH)][Phe(4-COOH)]SC[βAla][dE]-OH; thioether N-17; not fully specified) [compound 97]
- aLISA BMP4 (BMP4; [1]): A (showed an inhibitory activity of 50% or more in a zone to which the peptide was added to in an amount of 0.2 nM)
- aLISA BMP7 (BMP7; [2]): B (showed less than 50% of inhibitory activity in 1 nM-addition zone and showed 50% or more of inhibitory activity in 10 nM-addition zone)

Compound: 407 (FG[NMeF]G[Bip]GDE[Cha]Q[NMeF]L[Phe(4-COOH)]C[βAla][dE]) [compound 407]
- aLISA BMP4 (0.2 nM) % inh (BMP4; [3]): ND (the inhibitory activity was less than 30% at the maximum concentration evaluated)
- aLISA BMP7 (10 nM) % inh (BMP7; [4]): C (showed less than 30% of inhibitory activity in a zone to which the peptide was added in an amount of 1 nM and showed 30% or more of inhibitory activity in 10 nM-addition zone)

Compound: 256 (ERV[Phe(4-F)]VSR[3Pal(6-Ph)]SYV[Bip][4Pal][Phe(4-COOH)][Phe(4-COOH)]SCG-NH2; not fully specified) [compound 256]
- aLIZA BMP4 (0.2 nM) % Inh (BMP4; SMAD1 phosphorylation by BMP4 stimulus, peptide conc. in assay 0.02, 0.2, 2 nM, class symbols): C (showed less than 30% of inhibitory activity in 0.2 nM-addition zone and showed 30% or more of inhibitory activity in 2 nM-addition zone)
- aLIZA BMP7 (10 nM) % Inh (BMP7; SMAD1 phosphorylation by BMP7 stimulus, peptide conc. in assay 10, 100, 1000 nM, class symbols): ND (the inhibitory activity was less than 30% at the maximum concentration evaluated)

Compound: 356 (FG[NMeF]G[Bip]GDD[Cha]A[NMeF]L[cisHyp]CG-NH2; not fully specified (N-terminus, bridges)) [compound 356]
- aLISA BMP4 (0.2 nM) % inh (BMP4; SMAD1 phosphorylation, BMP4 0.2 nM, peptide conc. in assay 0.2, 2, 20 nM): A (showed less than 30% of inhibitory activity in 2 nM-peptide-addition zone and showed 30% or more of inhibitory activity in 20 nM-addition zone)
- aLISA BMP7 (10 nM) % inh (BMP7; SMAD1 phosphorylation, BMP7 10 nM, peptide conc. in assay 1, 10, 100 nM): C (showed less than 30% of inhibitory activity in a zone to which the peptide was added in an amount of 1 nM and showed 30% or more of inhibitory activity in 10 nM-addition zone)

Compound: 311 ({CH2CO}-ERV[Phe(4-COOH)]V[KCOpipzaa]R[3Pal(6-Ph)][KCOpipzaa]Y[Hyp][Bph3F]Y[Phe(4-COOH)][Phe(4-COOH)]SCG-NH2; thioether N-17 (inferred)) [compound 311]
- aLIZA BMP4 (0.2 nM) % inh (BMP4; [5]): B (showed less than 30% of inhibitory activity in 0.02 nM-addition zone and showed 30% or more of inhibitory activity in 0.2 nM-addition zone)
- aLIZA BMP7 (10 nM) % inh (BMP7; [6]): E (showed less than 30% of inhibitory activity in 100 nM-addition zone and showed 30% or more of inhibitory activity in 1,000 nM-addition zone)

Compound: 275 (ERV[Phe(4-COOH)]VDR[3Pal(6-Ph)][KCOpipzaa]Y[Hyp][Bip]Y[Phe(4-COOH)][Phe(4-COOH)]SCG-NH2; not fully specified) [compound 275]
- aLIZA BMP4 (0.2 nM) % inh (BMP4; [7]): B (showed less than 30% of inhibitory activity in 0.02 nM-addition zone and showed 30% or more of inhibitory activity in 0.2 nM-addition zone)
- aLIZA BMP7 (10 nM) % inh (BMP7; [8]): G (showed less than 30% of inhibitory activity in 100 nM-addition zone and showed 30% or more of inhibitory activity in 300 nM-addition zone)

Compound: 35 ({CH2CO}-AKVYVDK[Bip]PYP[Bip]Y[Phe(4-COOH)][Phe(4-COOH)]SCG-NH2; thioether N-17; not fully specified) [compound 35]
- aLISA BMP4 (BMP4; [9]): A (showed an inhibitory activity of 50% or more in a zone to which the peptide was added to in an amount of 0.2 nM)
- aLISA BMP7 (BMP7; [10]): ND (the inhibitory activity was less than 30% at the maximum concentration evaluated)

Compound: 276 (ERV[Phe(4-COOH)]V[KCOpipzaa]R[3Pal(6-Ph)][KCOpipzaa]Y[Hyp][Bip][4Pal][Phe(4-COOH)][Phe(4-COOH)]SCG-NH2; not fully specified) [compound 276]
- aLIZA BMP4 (0.2 nM) % inh (BMP4; [7]): B (showed less than 30% of inhibitory activity in 0.02 nM-addition zone and showed 30% or more of inhibitory activity in 0.2 nM-addition zone)
- aLIZA BMP7 (10 nM) % inh (BMP7; [8]): ND (the inhibitory activity was less than 30% at the maximum concentration evaluated)

Compound: 36 ({CH2CO}-AKVYV[KCOpipzaa]K[Bip]PYP[Bip]Y[Phe(4-COOH)][Phe(4-COOH)]SCG-NH2; thioether N-17; not fully specified) [compound 36]
- aLISA BMP4 (BMP4; [9]): A (showed an inhibitory activity of 50% or more in a zone to which the peptide was added to in an amount of 0.2 nM)
- aLISA BMP7 (BMP7; [10]): ND (the inhibitory activity was less than 30% at the maximum concentration evaluated)

Compound: 372 ([Phe(3-Cl)]G[NMeF]G[Bip]GDD[Cha]A[NMeF]LHCG-NH2; not fully specified (N-terminus, bridges); also: cyclic peptide, linkage not given here) [compound 372]
- aLISA BMP4 (0.2 nM) % inh (BMP4; BMP4 0.2 nM stimulus, peptide conc. in assay 2, 20, 200 nM): ND (the inhibitory activity was less than 30% at the maximum concentration evaluated)
- aLISA BMP7 (10 nM) % inh (BMP7; BMP7 10 nM stimulus, peptide conc. in assay 10, 30, 90 nM): G (showed less than 30% of inhibitory activity in 30 nM-addition zone and showed 30% or more of inhibitory activity in 90 nM-addition zone)

Compound: 24 ({CH2CO}-A[KCOpipzaa]VYV[KCOpipzaa]R[Bip]PYP[Bip]Y[Phe(4-COOH)][Phe(4-COOH)]SCG-NH2; thioether N-17; not fully specified) [compound 24]
- aLISA BMP4 (BMP4; [9]): A (showed an inhibitory activity of 50% or more in a zone to which the peptide was added to in an amount of 0.2 nM)
- aLISA BMP7 (BMP7; [10]): C (showed less than 50% of inhibitory activity in 10 nM-addition zone and showed 50% or more of inhibitory activity in 100 nM-addition zone)

Compound: Cc1ccc(C[C@H]2C(=O)N[C@@H](CC(C)C)C(=O)N3C[C@@H](O)C[C@H]3C(=O)N[C@H](C(=O)NCCC(=O)N[C@H](CCC(=O)O)C(=O)O)CSCC(=O)N[C@@H](Cc3ccc(F)cc3)C(=O)NCC(=O)N(C)[C@@H](Cc3ccccc3)C(=O)NCC(=O)N[C@@H](Cc3ccc(-c4ccccc4)nc3)C(=O)NCC(=O)N[C@@H](CC(=O)O)C(=O)N[C@@H](CCC(=O)O)C(=O)N[C@@H](CC3CCCCC3)C(=O)N[C@@H](CCCC(=O)O)C(=O)N2C)cc1 [compound 417] ({CH2CO}-[Phe(4-F)]G[NMeF]G[3Pal(6-Ph)]GDE[Cha][Aad][NMePhe(4-Me)]L[cisHyp]C[βAla][dE]-OH; thioether N-14)
- aLISA BMP4 (0.2 nM) % inh (BMP4; [3]): ND (the inhibitory activity was less than 30% at the maximum concentration evaluated)
- aLISA BMP7 (10 nM) % inh (BMP7; [4]): C (showed less than 30% of inhibitory activity in a zone to which the peptide was added in an amount of 1 nM and showed 30% or more of inhibitory activity in 10 nM-addition zone)

Compound: 409 (FG[NMeF]G[Bip]GDE[Cha][Aad][NMeF]L[Phe(4-COOH)]C[βAla][dE]) [compound 409]
- aLISA BMP4 (0.2 nM) % inh (BMP4; [3]): ND (the inhibitory activity was less than 30% at the maximum concentration evaluated)
- aLISA BMP7 (10 nM) % inh (BMP7; [4]): D (showed less than 30% of inhibitory activity in 10 nM-addition zone and showed 30% or more of inhibitory activity in 100 nM-addition zone)

Compound: 316 (ERV[Phe(4-COOH)][Cba][KCOpipzaa]R[3Pal(6-Ph)][KCOpipzaa]Y[Hyp][Bph3F][4Pal][Phe(4-COOH)][Phe(4-COOH)]SCG-NH2; not fully specified) [compound 316]
- aLIZA BMP4 (0.2 nM) % inh (BMP4; [5]): C (showed less than 30% of inhibitory activity in 0.2 nM-addition zone and showed 30% or more of inhibitory activity in 2 nM-addition zone)
- aLIZA BMP7 (10 nM) % inh (BMP7; [6]): ND (the inhibitory activity was less than 30% at the maximum concentration evaluated)

Compound: 122 ({CH2CO}-ERV[Phe(4-COOH)]V[KCOpipzaa]R[Bip]PYP[Bip]Y[Phe(4-COOH)][Phe(4-COOH)]SC[βAla][dE]-OH; thioether N-17; not fully specified) [compound 122]
- aLISA BMP4 (BMP4; [1]): A (showed an inhibitory activity of 50% or more in a zone to which the peptide was added to in an amount of 0.2 nM)
- aLISA BMP7 (BMP7; [2]): C (showed less than 50% of inhibitory activity in 10 nM-addition zone and showed 50% or more of inhibitory activity in 100 nM-addition zone)
